Measured values taken from PMC9098913, “In vitro reconstitution of Escherichia coli divisome activation” (Nature Communications, 2022).
Where two headings read alike, the source gives them in different places.

Legend:
FtsA/Z co-filaments = format: biochemical, E. coli; details: Fig. 2g, mean
Experimental: By fitting an exponential function to the increase of the PCC with time, we were able to extract the corresponding recruitment rate (Fig. 2f, g).
Subsequently, the chamber was washed 6x with reaction buffer, to remove bulk peptide. To visualize colocalization with either FtsZ or FtsA, either a mix of FtsA and Alexa488-FtsZ or Cy3-FtsA and FtsZ was added. […] The time-lapse videos were recorded for 10 min after the addition, with one frame per 2 s.

[1] = Single-molecule membrane residence time of FtsA; format: binding; design: Single Molecule Lifetime: unit not given here; details: for Single Molecule Lifetime, mean: mean of Exp. 1-3, n = 3, Fig. 3b; for mean residence time on the membrane: single-particle tracking, n = 3
Experimental: First, we studied the behaviour of single FtsA proteins on the membrane surface.
After 5 min of incubation, single molecule time lapses were acquired every 125, 250, 500, and 1000 and 2000 ms, with an exposure time of 50 ms. Subsequently, the bulk concentration of FtsA was increased to 0.2/0.4/0.8 µM and time lapses were repeated as described above.
Single molecules of FtsA or FtsZ were tracked using the TrackMate plugin from ImageJ[43]. To obtain the residence time of FtsZ and FtsA, we performed a residence time analysis as described before[40],[47]. Shortly, single molecules were imaged at different acquisition rates (0.1–2 s) and the lifetime of the molecules was extracted from each data set. To account for photobleaching effect, the obtained lifetimes were plotted against the acquisition rate. […] Furthermore, we extracted the diffusion coefficient of FtsA single molecules at increasing concentrations. For this, we filtered the obtained data, by considering only trajectories which are present on the membrane for more than 0.4 s. […] Subsequently, the diffusion coefficient of FtsA molecules was estimated by fitting an MSD curve to each individual trajectory.

[2] = SEC-MALS oligomeric state of FtsA in solution; format: physicochemical
Experimental: Light scattering was recorded on a miniDAWN light scattering device (Wyatt). Changes in the refractive index were used to define the peak area, which was used to obtain the molecular mass. The analysis of the data was performed with the ASTRA software (Wyatt).

FtsZ = tested on: FtsZ
Experimental: Additionally, the reaction chamber contained 4 mM ATP and 4 mM GTP, as well as a scavenging system to minimize photobleaching effects: 30 mM d-glucose, 0.050 mg ml^−1 Glucose Oxidase, 0.016 mg ml^−1 Catalase, 1 mM DTT and 1 mM Trolox. Prior addition of all components a corresponding buffer volume was removed from the chamber to obtain a total reaction volume of 100 µl. The dynamic protein pattern was monitored by time-lapse TIRF microscopy at one frame per 2 s and 50 ms exposure time.

Molecule	Recruitment rate of FtsN to FtsZ filaments (FtsA/Z co-filaments; Concentration 0.10 µM)	Recruitment rate of FtsN to FtsZ filaments (FtsA/Z co-filaments; Concentration 0.20 µM)	Recruitment rate of FtsN to FtsZ filaments (FtsA/Z co-filaments; Concentration 0.40 µM)	Recruitment rate of FtsN to FtsZ filaments (FtsA/Z co-filaments; Concentration 0.80 µM)	Single Molecule Lifetime ([1]; 0.1 µM FtsA, Exp. 1)	Single Molecule Lifetime ([1]; 0.1µM FtsA, Exp. 2)	Single Molecule Lifetime ([1]; 0.1 µM FtsA, Exp. 3)	Single Molecule Lifetime, mean ([1]; 0.1 µM FtsA)	Single Molecule Lifetime ([1]; 0.2 µM FtsA, Exp. 1)	Single Molecule Lifetime ([1]; 0.2µM FtsA, Exp. 2)	Single Molecule Lifetime ([1]; 0.2 µM FtsA, Exp. 3)	Single Molecule Lifetime, mean ([1]; 0.2 µM FtsA)	Single Molecule Lifetime ([1]; 0.4 µM FtsA, Exp. 1)	Single Molecule Lifetime ([1]; 0.4µM FtsA, Exp. 2)	Single Molecule Lifetime ([1]; 0.4 µM FtsA, Exp. 3)	Single Molecule Lifetime, mean ([1]; 0.4 µM FtsA)	Single Molecule Lifetime ([1]; 0.8 µM FtsA, Exp. 1)	Single Molecule Lifetime ([1]; 0.8µM FtsA, Exp. 2)	Single Molecule Lifetime ([1]; 0.8 µM FtsA, Exp. 3)	Single Molecule Lifetime, mean ([1]; 0.8 µM FtsA)	further results
FtsA WT: wild-type E. coli actin-homologue FtsA, membrane anchor of FtsZ	2.60	1.05	0.99	0.85	15.60	17.80	24.80	19.40	13.20	21.50	28.80	21.17	28.70	24.00	26.30	26.33	37.60	32.60	35.20	35.13	mean residence time on the membrane ([1]; 0.1 µM FtsA): 19.4 ± 3.9 s; mean residence time on the membrane ([1]; 0.8 µM FtsA): 35.1 ± 2.0 s; oligomeric state in solution [2]: monomeric in solution
FtsA R286W (protein, Cy3 or Cy5 at the N-terminus in the labelled form (labelled CLEPTGG peptide conjugated to the 5xGly tag by sortagging); unlabelled protein also used; left off: TwinStrep-SUMO, N-terminal, cleaved | 5x) MIKATDRKLVVGLEIGTAKVAALVGEVLPDGMVNIIGVGSCPSRGMDKGGVNDLESVVKCVQRAIDQAELMADCQISSVYLALSGKHISCQNEIGMVPISEEEVTQEDVENVVHTAKSVRVRDEHRVLHVIPQEYAIDYQEGIKNPVGLSGVRMQAKVHLITCHNDMAKNIVKAVERCGLKVDQLIFAGLASSYSVLTEDERELGVCVVDIGGGTMDIAVYTGGALRHTKVIPYAGNVVTSDIAYAFGTPPSDAEAIKVRHGCALGSIVGKDESVEVPSVGGRPPWSLQRQTLAEVIEPRYTELLNLVNEEILQLQEKLRQQGVKHHLAAGIVLTGGAAQIEGLAACAQRVFHTQVRIGAPLNITGLTDYAQEPYYSTAVGLLHYGKESHLNGEAEVEKRVTASVGSWIKRLNSWLRKEF	2.71	3.32	2.53	2.36	1.99	2.89	3.02	2.63	3.32	7.68	10.90	7.30	8.16	11.60	5.33	8.36	15.60	10.90	15.80	14.10	oligomeric state in solution [2]: monomeric in solution; FtsZ fluorescence intensity compared to the wild-type protein (FtsZ): increased
